Results from patent publication US8741849B2, “Kinase inhibitors and uses thereof” (priority 2007, dated 2014).

Legend:
PKC β 1 (h) = target: T1, PKC β 1 (h) (Homo sapiens, UniProt P05771); assay: kinase profiler assay (radiometric); assay type: biochemical; details: @ = 30 μm peptide; less than 100 = kinase inhibition, greater than 100 = stimulation
T1 construct: purchased Upstate (Millipore) KinaseProfiler service
Excerpt: (§1) KIP peptides […] [SEQ ID NO: 142], […] [SEQ ID NO: 173], and […] [SEQ ID NO: 163] were utilized to profile a variety of different kinases. The kinase profiler assay services provided by Upstate, a part of Millipore Corporation (Billerica, Mass.), were utilized to conduct the kinase profiles. The kinase profiler assays, which are radiometric, are based on measuring the amount of radioactive transfer from an ATP (y-^33P-ATP) to a substrate peptide using known concentrations of kinase enzyme, inhibitor, ATP, and buffer at defined time points and temperatures. Details on the reaction conditions for each kinase are available at www.millipore.com/drugdiscovery/dd3/KinaseProfiler. […] ROCK-1(h) (5-10 mU) was incubated with 8 mM MOPS pH 7.0, 0.2 mM EDTA, 30 i.IM of the peptide […] [SEQ ID NO: 189], 10 mM Mg acetate and y-^33P-ATP (specific activity approximately 500 cpm/pmol, concentration as required) in a final reaction volume of 25 pl. The reaction was initiated by the addition of the MgATP mixture in the absence and presence of inhibitor compounds. After incubation for 40 minutes at room temperature, the reaction was stopped by the addition of 5) 11 of a 3% phosphoric acid solution. 10 pl of the reaction mixture then was spotted onto a P30 filtermat. The filtermat was washed three times for 5 minutes in 75 mM phosphoric acid, once in methanol, dried and counted by scintillation counting. Where the kinase is uninhibited, the kinase phosphorylates a positively charged substrate with radioactive ATP, which then binds to a negatively charged filter membrane. Scintillation counts (radioactivity) directly correlate with kinase activity. […] All profile data less than 100 indicate kinase inhibition while data greater than 100 indicate kinase stimulation.

PKG1α (h) = target: T2, PKG1α (h) (Homo sapiens, UniProt Q13976); assay: kinase profiler assay (radiometric); assay type: biochemical; details: @ = 30 μm peptide; less than 100 = kinase inhibition, greater than 100 = stimulation
T2 construct: purchased Upstate (Millipore) KinaseProfiler service
T2 sequence (Q13976 1-671): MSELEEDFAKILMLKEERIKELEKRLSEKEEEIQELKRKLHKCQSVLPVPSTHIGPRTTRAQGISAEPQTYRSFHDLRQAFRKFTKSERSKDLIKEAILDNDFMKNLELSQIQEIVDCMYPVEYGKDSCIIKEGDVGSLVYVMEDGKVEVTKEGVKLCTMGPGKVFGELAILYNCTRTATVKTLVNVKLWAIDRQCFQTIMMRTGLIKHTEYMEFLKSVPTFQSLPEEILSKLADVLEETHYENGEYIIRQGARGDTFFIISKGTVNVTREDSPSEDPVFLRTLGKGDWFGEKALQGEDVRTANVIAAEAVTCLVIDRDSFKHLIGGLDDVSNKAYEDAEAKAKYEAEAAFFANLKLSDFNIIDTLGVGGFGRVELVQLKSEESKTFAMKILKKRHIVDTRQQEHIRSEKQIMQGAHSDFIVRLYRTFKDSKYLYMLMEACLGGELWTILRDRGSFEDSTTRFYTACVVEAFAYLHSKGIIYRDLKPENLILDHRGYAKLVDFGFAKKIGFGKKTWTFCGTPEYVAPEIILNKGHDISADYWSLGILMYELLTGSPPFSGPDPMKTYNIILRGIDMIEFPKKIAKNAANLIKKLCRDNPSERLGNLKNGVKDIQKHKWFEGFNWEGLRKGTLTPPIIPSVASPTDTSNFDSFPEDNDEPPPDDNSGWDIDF
Excerpt: as §1

T1 sequence (P05771 whole entry): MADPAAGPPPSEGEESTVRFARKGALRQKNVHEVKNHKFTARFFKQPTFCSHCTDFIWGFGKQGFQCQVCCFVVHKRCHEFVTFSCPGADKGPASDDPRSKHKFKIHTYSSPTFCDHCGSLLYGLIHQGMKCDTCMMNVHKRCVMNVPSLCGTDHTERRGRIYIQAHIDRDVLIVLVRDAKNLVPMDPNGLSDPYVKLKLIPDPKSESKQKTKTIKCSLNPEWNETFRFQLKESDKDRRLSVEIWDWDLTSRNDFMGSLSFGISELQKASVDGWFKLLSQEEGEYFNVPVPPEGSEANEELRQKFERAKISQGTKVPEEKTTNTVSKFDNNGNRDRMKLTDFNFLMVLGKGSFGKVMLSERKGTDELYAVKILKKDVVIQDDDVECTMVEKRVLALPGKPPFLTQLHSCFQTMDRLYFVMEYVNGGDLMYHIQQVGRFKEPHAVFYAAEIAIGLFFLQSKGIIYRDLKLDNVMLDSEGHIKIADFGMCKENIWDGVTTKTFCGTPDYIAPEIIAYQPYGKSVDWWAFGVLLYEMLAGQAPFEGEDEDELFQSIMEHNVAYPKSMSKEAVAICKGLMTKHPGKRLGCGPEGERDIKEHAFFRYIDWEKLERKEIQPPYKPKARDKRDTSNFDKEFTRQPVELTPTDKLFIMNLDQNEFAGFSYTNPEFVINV

WLRRIKAWLRRIKALNRQLGVAA
Profile-1, PKC β 1 (h) (PKC β 1 (h)): 8
Profile-1, PKG1α (h) (PKG1α (h)): 16
